Values belong to the binder of their own block, whether it stands above or below them.
Key:
Assay in all cases: holdup assay
Set-up in all cases: key: below the threshold = too weak to quantify, mostly under pKd 3.1 to 4
Conditions in all cases: plain residues with an end cap or a label only (N-terminal biotin on a linker: ado-ado)
[1] = target: T1, SNTB1, Q13884
T1 sequence (Q13884 107-205, limits assumed, looked up): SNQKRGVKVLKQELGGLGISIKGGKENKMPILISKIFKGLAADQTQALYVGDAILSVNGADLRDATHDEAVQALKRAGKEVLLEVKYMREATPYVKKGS

[2] = target: T2, APBA1_2, Q02410
T2 sequence (Q02410 742-832, limits assumed, looked up): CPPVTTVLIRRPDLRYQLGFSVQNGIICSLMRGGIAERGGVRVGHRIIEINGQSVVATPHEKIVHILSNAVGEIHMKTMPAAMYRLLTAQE

[3] = target: DLG2_2, Q15700
[4] = target: Inadl_4, Q8NI35
[5] = target: DLG5_1, Q8TDM6
[6] = target: CASK, O14936
[7] = target: MAGI2_3, Q86UL8
[8] = target: NHERF4_2, Q86UT5
[9] = target: DLG1_1, Q12959
[10] = target: SCRIB_3, Q14160
[11] = target: ARHGEF12, Q9NZN5-2
[12] = target: PARD3_3, Q8TEW0
[13] = target: Inadl_10, Q8NI35
[14] = target: SCRIB_1, Q14160
[15] = target: T3, LRRC7, Q96NW7
T3 sequence (Q96NW7 1440-1537, limits assumed, looked up): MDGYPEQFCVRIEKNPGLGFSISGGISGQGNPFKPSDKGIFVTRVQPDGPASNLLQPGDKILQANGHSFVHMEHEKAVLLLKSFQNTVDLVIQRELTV

[16] = target: T4, MPDZ_12, O75970
T4 sequence (O75970 1857-1958, limits assumed, looked up): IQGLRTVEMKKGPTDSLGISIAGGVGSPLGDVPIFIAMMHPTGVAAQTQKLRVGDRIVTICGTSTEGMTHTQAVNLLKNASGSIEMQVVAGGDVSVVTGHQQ

[17] = target: T5, PTPN13_1, Q12923
T5 sequence (Q12923 1088-1188, limits assumed, looked up): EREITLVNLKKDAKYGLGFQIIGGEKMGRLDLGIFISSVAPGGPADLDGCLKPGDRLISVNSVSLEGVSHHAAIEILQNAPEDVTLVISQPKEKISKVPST

[18] = target: T6, GRIP1_2, Q9Y3R0
T6 sequence (Q9Y3R0 145-248, limits assumed, looked up): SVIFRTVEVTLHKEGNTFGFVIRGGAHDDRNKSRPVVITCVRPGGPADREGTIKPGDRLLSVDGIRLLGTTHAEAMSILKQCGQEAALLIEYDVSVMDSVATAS

[19] = target: T7, ARHGEF11, O15085
T7 sequence (O15085 42-136, limits assumed, looked up): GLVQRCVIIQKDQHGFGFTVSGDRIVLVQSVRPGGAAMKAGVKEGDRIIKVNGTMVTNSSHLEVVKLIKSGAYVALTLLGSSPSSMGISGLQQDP

[20] = target: T8, RADIL, Q96JH8
T8 sequence (Q96JH8 971-1071, limits assumed, looked up): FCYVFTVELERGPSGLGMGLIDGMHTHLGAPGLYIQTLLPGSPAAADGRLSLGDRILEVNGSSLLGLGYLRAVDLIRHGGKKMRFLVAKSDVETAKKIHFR

[21] = target: MAGI2_5, Q86UL8
[22] = target: DLG4_2, P78352
[23] = target: T9, SNTG2, Q9NY99
T9 sequence (Q9NY99 68-166, limits assumed, looked up): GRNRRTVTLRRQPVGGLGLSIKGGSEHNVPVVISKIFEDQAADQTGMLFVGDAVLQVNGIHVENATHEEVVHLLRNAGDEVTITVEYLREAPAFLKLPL

[24] = target: T10, GRIP1_3, Q9Y3R0
T10 sequence (Q9Y3R0 247-346, limits assumed, looked up): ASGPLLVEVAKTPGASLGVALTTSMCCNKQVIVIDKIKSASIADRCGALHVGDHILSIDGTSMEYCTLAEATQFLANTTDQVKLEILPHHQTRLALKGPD

[25] = target: T11, PDZRN3_1, Q9UPQ7
T11 sequence (Q9UPQ7 244-349, limits assumed, looked up): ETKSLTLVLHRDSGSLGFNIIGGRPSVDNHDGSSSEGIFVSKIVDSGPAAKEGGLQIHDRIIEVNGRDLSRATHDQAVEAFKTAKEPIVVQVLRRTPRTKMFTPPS

[26] = target: T12, RHPN1, Q8TCX5
T12 sequence (Q8TCX5 508-602, limits assumed, looked up): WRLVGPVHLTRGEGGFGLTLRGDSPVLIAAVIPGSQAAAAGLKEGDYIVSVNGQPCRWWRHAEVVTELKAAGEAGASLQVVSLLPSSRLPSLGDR

Sequence of DLG2_2, Q15700 (Q15700 189-283): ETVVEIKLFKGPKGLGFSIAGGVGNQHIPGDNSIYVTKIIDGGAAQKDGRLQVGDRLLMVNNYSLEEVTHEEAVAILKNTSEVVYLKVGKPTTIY
Sequence of SCRIB_1, Q14160 (Q14160 718-814): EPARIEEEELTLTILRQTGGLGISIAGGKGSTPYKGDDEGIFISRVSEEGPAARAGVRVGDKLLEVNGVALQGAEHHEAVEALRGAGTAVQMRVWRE
Sequence of DLG4_2, P78352 (P78352 155-259): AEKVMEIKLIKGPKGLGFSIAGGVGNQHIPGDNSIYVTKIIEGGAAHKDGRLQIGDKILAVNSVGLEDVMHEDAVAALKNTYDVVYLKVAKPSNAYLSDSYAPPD
Sequence of MAGI2_3, Q86UL8 (Q86UL8 600-682): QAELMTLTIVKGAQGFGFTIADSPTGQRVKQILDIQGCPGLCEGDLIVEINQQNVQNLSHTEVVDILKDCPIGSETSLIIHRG
Sequence of CASK, O14936 (O14936 487-570): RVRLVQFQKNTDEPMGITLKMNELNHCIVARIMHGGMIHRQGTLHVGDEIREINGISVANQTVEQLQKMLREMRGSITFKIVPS
Sequence of ARHGEF12, Q9NZN5-2 (Q9NZN5 other isoform, or with tags, fused parts or gaps): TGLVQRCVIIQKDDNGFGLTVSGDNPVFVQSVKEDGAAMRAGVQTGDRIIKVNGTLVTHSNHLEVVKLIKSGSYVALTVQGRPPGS
Sequence of Inadl_10, Q8NI35 (Q8NI35 1673-1763): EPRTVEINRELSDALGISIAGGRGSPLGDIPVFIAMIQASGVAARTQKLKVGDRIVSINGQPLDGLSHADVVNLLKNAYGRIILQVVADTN
Sequence of SCRIB_3, Q14160 (Q14160 999-1103): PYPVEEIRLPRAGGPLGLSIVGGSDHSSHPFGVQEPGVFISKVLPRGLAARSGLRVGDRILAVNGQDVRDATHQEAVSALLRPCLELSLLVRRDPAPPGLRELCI
Sequence of PARD3_3, Q8TEW0 (Q8TEW0 582-685): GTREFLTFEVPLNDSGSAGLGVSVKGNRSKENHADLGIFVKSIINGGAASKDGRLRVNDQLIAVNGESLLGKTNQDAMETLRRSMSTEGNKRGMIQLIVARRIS
Sequence of MAGI2_5, Q86UL8 (Q86UL8 915-1017): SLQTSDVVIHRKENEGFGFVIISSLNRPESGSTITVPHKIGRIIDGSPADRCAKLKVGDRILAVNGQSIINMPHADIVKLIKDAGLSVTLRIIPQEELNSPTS
Sequence of NHERF4_2, Q86UT5 (Q86UT5 220-308): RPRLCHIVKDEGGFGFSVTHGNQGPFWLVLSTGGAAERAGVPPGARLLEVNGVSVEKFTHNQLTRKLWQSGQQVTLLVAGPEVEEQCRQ
Sequence of Inadl_4, Q8NI35 (Q8NI35 547-651): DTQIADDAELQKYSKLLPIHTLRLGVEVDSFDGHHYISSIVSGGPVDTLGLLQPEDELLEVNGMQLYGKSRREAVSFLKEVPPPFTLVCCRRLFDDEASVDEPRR
Sequence of DLG5_1, Q8TDM6 (Q8TDM6 617-713): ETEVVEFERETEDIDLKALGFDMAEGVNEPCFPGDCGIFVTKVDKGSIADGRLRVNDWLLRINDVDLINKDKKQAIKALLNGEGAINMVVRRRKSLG

pKd [1]: 3.61
pKd [2]: 4
pKd [3]: below the threshold
pKd [4]: below the threshold
pKd [5]: below the threshold
pKd [6]: below the threshold
pKd [7]: 3.63
pKd [8]: below the threshold
pKd [9]: below the threshold
pKd [10]: 3.53
pKd [11]: 3.84
pKd [12]: 4.04
pKd [13]: below the threshold
pKd [14]: below the threshold
pKd [15]: below the threshold
pKd [16]: below the threshold
pKd [17]: below the threshold
pKd [18]: below the threshold
pKd [19]: 3.94
pKd [20]: 4.99
pKd [21]: below the threshold
pKd [22]: 3.56
pKd [23]: below the threshold
pKd [24]: below the threshold
pKd [25]: below the threshold
pKd [26]: below the threshold
B1: CLDN2, P57739 (peptide)
chain: FNSYSLTGYV

pKd [1]: below the threshold
pKd [2]: below the threshold
pKd [3]: below the threshold
pKd [4]: below the threshold
pKd [5]: below the threshold
pKd [6]: below the threshold
pKd [7]: below the threshold
pKd [8]: below the threshold
pKd [9]: below the threshold
pKd [10]: below the threshold
pKd [11]: below the threshold
pKd [12]: below the threshold
pKd [13]: below the threshold
pKd [14]: below the threshold
pKd [15]: below the threshold
pKd [16]: below the threshold
pKd [17]: below the threshold
pKd [18]: below the threshold
pKd [19]: below the threshold
pKd [20]: 3.57
pKd [21]: below the threshold
pKd [22]: below the threshold
pKd [23]: below the threshold
pKd [24]: below the threshold
pKd [25]: below the threshold
pKd [26]: below the threshold
B2: NOSTRIN, Q8IVI9 (peptide)
chain: SNAGNTATKA

pKd [1]: 4.46
pKd [2]: 4.47
pKd [3]: 4.38
pKd [4]: below the threshold
pKd [5]: below the threshold
pKd [6]: below the threshold
pKd [7]: 4.69
pKd [8]: below the threshold
pKd [9]: 4.38
pKd [10]: 3.78
pKd [11]: 4.24
pKd [12]: below the threshold
pKd [13]: below the threshold
pKd [14]: 3.7
pKd [15]: below the threshold
pKd [16]: below the threshold
pKd [17]: below the threshold
pKd [18]: below the threshold
pKd [19]: 4.03
pKd [20]: 3.54
pKd [21]: below the threshold
pKd [22]: 4.53
pKd [23]: 4.18
pKd [24]: below the threshold
pKd [25]: 4.03
pKd [26]: below the threshold
B3: SAPCD1, Q5SSQ6 (peptide)
chain: TKGPRGPTRV

pKd [1]: 4.94
pKd [2]: 3.79
pKd [3]: 4.45
pKd [4]: 3.63
pKd [5]: below the threshold
pKd [6]: below the threshold
pKd [7]: 3.65
pKd [8]: below the threshold
pKd [9]: 4.19
pKd [10]: 3.9
pKd [11]: below the threshold
pKd [12]: 3.81
pKd [13]: below the threshold
pKd [14]: 3.72
pKd [15]: 3.73
pKd [16]: 3.5
pKd [17]: below the threshold
pKd [18]: below the threshold
pKd [19]: 3.99
pKd [20]: 4.05
pKd [21]: 4.55
pKd [22]: 4.59
pKd [23]: 4.34
pKd [24]: below the threshold
pKd [25]: 3.72
pKd [26]: 4.47
B4: SLC45A4, Q5BKX6 (peptide)
chain: QGPVETESVV

pKd [1]: below the threshold
pKd [2]: below the threshold
pKd [3]: below the threshold
pKd [4]: below the threshold
pKd [5]: below the threshold
pKd [6]: below the threshold
pKd [7]: below the threshold
pKd [8]: below the threshold
pKd [9]: below the threshold
pKd [10]: below the threshold
pKd [11]: below the threshold
pKd [12]: below the threshold
pKd [13]: below the threshold
pKd [14]: below the threshold
pKd [15]: below the threshold
pKd [16]: below the threshold
pKd [17]: below the threshold
pKd [18]: below the threshold
pKd [19]: below the threshold
pKd [20]: below the threshold
pKd [21]: below the threshold
pKd [22]: below the threshold
pKd [23]: below the threshold
pKd [24]: below the threshold
pKd [25]: below the threshold
pKd [26]: below the threshold
B5: SDC4, P31431 (peptide)
chain: KKAPTNEFYA
